Measurements published in patent US20230265151A1, “GIP/GLP1 CO-AGONIST COMPOUNDS” (priority 2020, published 2023).
*1 amine or outer side, *2 acyl side, *3 side chain or, on linkers, in order; H or OH if unused. Where no end group is shown, it is not given here. Side-chain parts run from the residue outwards. [ ]: non-standard residue; d: D form. The star is where a group is joined. Decanoyl(10-(4-HOOC-PhO)) = O=C(O)c1ccc(OCCCCCCCCCC(=O)*)cc1; αMePhe(2-F) = C[C@](N)(Cc1ccccc1F)C(=O)O; γGlu = O=C(O)[C@H](CCC(=O)[*:2])N[*:1]; αMeY = C[C@](N)(Cc1ccc(O)cc1)C(=O)O; αMeL = CC(C)C[C@](C)(N)C(=O)O; Orn = NCCC[C@H](N)C(=O)O; AEEA = NCCOCCOCC(=O)O; Aib = CC(C)(N)C(=O)O

Legend:
Experiment in all cases: cell-based or functional assay
[1] = biological target: T1, human GIP receptor (human) (UniProt P48546)
T1 sequence (looked up): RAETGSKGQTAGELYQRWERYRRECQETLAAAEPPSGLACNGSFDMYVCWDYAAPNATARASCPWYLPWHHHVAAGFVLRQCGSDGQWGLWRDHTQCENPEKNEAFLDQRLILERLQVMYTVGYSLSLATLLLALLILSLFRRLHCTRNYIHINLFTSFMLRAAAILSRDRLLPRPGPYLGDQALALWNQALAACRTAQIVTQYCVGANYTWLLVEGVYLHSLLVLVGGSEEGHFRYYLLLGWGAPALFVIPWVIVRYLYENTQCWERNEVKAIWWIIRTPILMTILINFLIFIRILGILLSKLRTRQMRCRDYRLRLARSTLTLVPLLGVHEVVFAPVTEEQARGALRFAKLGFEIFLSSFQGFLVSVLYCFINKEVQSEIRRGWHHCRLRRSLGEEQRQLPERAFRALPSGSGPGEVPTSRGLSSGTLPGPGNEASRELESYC

[2] = biological target: human glucagon receptor (human) (UniProt P47871)
[3] = biological target: hGLP-1R (Homo sapiens, UniProt P43220)
[4] = biological target: human glucagon receptor (human, UniProt P47871 26-477)
Sequence of human glucagon receptor (P47871 26-477): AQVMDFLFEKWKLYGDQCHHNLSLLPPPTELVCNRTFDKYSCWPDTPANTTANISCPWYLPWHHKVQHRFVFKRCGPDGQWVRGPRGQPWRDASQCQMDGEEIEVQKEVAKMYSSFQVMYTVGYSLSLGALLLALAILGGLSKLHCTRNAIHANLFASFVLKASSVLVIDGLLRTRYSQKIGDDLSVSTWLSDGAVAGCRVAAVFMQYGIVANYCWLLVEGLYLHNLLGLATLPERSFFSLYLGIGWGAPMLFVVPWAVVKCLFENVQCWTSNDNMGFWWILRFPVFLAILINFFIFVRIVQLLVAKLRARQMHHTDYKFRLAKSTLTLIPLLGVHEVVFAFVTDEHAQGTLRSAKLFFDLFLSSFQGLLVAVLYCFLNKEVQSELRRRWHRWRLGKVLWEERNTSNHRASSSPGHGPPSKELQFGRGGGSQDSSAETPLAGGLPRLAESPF

[5] = biological target: T2, human GIP receptor (human, UniProt P48546 22-466)
T2 sequence (looked up): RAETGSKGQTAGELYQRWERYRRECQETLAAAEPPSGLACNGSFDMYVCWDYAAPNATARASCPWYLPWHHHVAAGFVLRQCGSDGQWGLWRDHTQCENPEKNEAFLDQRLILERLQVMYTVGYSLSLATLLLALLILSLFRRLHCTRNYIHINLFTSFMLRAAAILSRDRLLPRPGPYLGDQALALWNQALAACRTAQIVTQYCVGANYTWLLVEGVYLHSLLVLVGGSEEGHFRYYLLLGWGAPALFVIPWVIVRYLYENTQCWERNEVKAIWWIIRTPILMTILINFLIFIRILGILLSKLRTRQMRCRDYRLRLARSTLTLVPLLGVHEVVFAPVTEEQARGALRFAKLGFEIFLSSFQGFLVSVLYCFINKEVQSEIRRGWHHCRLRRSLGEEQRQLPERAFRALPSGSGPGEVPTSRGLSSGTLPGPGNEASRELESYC

[6] = biological target: human GLP-1 receptor (human, UniProt P43220 24-463)

B1: Example 388 (peptide)
peptide: YXEGTXTSDYXIXLDXKAQXEFIXXLIKGGPSSGAPPPS
modifications: Y-Aib-EGT-αMeF(2F)-TSDY-Aib-I-αMeL-LD-Orn-K((2-[2-(2-Amino-ethoxy)-ethoxy]-acetyl)2-CO-(CH2)12-CO2H)AQ-Aib-EFI-(D-Glu)-αMeY-LIK((2-[2-(2-Amino-ethoxy)-ethoxy]-acetyl)2-CO-(CH2)12-CO2H)GGPSSGAPPPS-NH2
cAMP EC50 [1]: 0.0103 nM | cAMP Emax [1]: 98.3% | cAMP EC50 [2]: > 9950 nM | cAMP EC50 [3]: 0.292 nM | cAMP Emax [3]: 95.4% | cAMP EC50 (1.0% HSA) [4]: > 9950 nM | cAMP EC50 (1.0% HSA) [5]: 0.463 nM | cAMP EC50 (1.0% HSA) [6]: 6.31 nM

B2: Example 378 (peptide)
peptide: YXEGTXTSDVXIXLDXKAQXKFIXXLIEGGPSSGAPPPS
modifications: Y-Aib-EGT-αMeF(2F)-TSDV-Aib-I-αMeL-LD-Orn-K((2-[2-(2-Amino-ethoxy)-ethoxy]-acetyl)-(γ-Glu)-(10-(4-carboxyphenoxy)decanoyl))AQ-Aib-K((2-[2-(2-Amino-ethoxy)-ethoxy]-acetyl)-(γ-Glu)-(10-(4-carboxyphenoxy)decanoyl))FI-(D-Glu)-αMeY-LIEGGPSSGAPPPS-NH2
cAMP EC50 [1]: 0.0132 nM | cAMP Emax [1]: 93.5% | cAMP EC50 [2]: > 9950 nM | cAMP EC50 [3]: 0.166 nM | cAMP Emax [3]: 98.9% | cAMP EC50 (1.0% HSA) [4]: > 9950 nM | cAMP EC50 (1.0% HSA) [5]: 7.46 nM | cAMP Emax (1.0% HSA) [5]: 81.2% | cAMP EC50 (1.0% HSA) [6]: 47.7 nM

B3: Example 373 (peptide)
peptide: YXEGTXTSDYXIXLDXKAQXEFIXXLIKGGPSSGAPPPS
modifications: Y-Aib-EGT-αMeF(2F)-TSDY-Aib-I-αMeL-LD-Orn-K((2-[2-(2-Amino-ethoxy)-ethoxy]-acetyl)-(γ-Glu)-(10-(4-carboxyphenoxy)decanoyl))AQ-Aib-EFI-(D-Glu)-αMeY-LIK((2-[2-(2-Amino-ethoxy)-ethoxy]-acetyl)-(γ-Glu)-(10-(4-carboxyphenoxy)decanoyl))GGPSSGAPPPS-NH2
cAMP EC50 [1]: 0.0152 nM | cAMP Emax [1]: 101% | cAMP EC50 [2]: > 9950 nM | cAMP EC50 [3]: 0.329 nM | cAMP Emax [3]: 101% | cAMP EC50 (1.0% HSA) [4]: > 9950 nM | cAMP EC50 (1.0% HSA) [5]: 2.84 nM | cAMP EC50 (1.0% HSA) [6]: 37.4 nM

B4: Example 384 (peptide)
peptide: YXEGTXTSDXXIXLDXKAQXKFIXXLIEGGPSSGAPPPS
modifications: Y-Aib-EGT-αMeF(2F)-TSD-4Pal-Aib-I-αMeL-LD-Orn-K((2-[2-(2-Amino-ethoxy)-ethoxy]-acetyl)2-CO-(CH2)12-CO2H)AQ-Aib-K((2-[2-(2-Amino-ethoxy)-ethoxy]-acetyl)2-CO-(CH2)12-CO2H)FI-(D-Glu)-αMeY-LIEGGPSSGAPPPS-NH2
cAMP EC50 [1]: 0.0124 nM | cAMP Emax [1]: 94.5% | cAMP EC50 [2]: > 9950 nM | cAMP EC50 [3]: 0.308 nM | cAMP Emax [3]: 98.2% | cAMP EC50 (1.0% HSA) [4]: > 9950 nM | cAMP EC50 (1.0% HSA) [5]: 0.457 nM | cAMP EC50 (1.0% HSA) [6]: 5.32 nM

B5: Example 383 (peptide)
peptide: Y[Aib]EGT[αMePhe(2-F)]TSDV[Aib]I[αMeL]LD[Orn]IAQ[Aib]K([AEEA-AEEA-γGlu-Decanoyl(10-(4-HOOC-PhO))])FI[dE][αMeY]LIEGGPSSGAPPPSK([AEEA-AEEA-γGlu-Decanoyl(10-(4-HOOC-PhO))])-NH2
cAMP EC50 [1]: 0.0147 nM | cAMP Emax [1]: 100% | cAMP EC50 [2]: > 9950 nM | cAMP EC50 [3]: 0.306 nM | cAMP Emax [3]: 105% | cAMP EC50 (1.0% HSA) [4]: > 9950 nM | cAMP EC50 (1.0% HSA) [5]: 10.7 nM | cAMP Emax (1.0% HSA) [5]: 82.8% | cAMP EC50 (1.0% HSA) [6]: 92.2 nM | cAMP Emax (1.0% HSA) [6]: 102%

B6: Example 380 (peptide)
peptide: Y[Aib]EGT[αMePhe(2-F)]TSDV[Aib]I[αMeL]LD[Orn]K([AEEA-AEEA-γGlu-Decanoyl(10-(4-HOOC-PhO))])AQ[Aib]EFI[dE][αMeY]LIEGGPSSGAPPPSK([AEEA-AEEA-γGlu-Decanoyl(10-(4-HOOC-PhO))])-NH2
cAMP EC50 [1]: 0.0209 nM | cAMP Emax [1]: 100% | cAMP EC50 [2]: > 9950 nM | cAMP EC50 [3]: 0.176 nM | cAMP Emax [3]: 96.2% | cAMP EC50 (1.0% HSA) [4]: > 9950 nM | cAMP EC50 (1.0% HSA) [5]: 9.23 nM | cAMP Emax (1.0% HSA) [5]: 93.5% | cAMP EC50 (1.0% HSA) [6]: 28 nM | cAMP Emax (1.0% HSA) [6]: 94.5%

B7: Example 382 (peptide)
peptide: Y[Aib]EGT[αMePhe(2-F)]TSDV[Aib]I[αMeL]LD[Orn]IAQ[Aib]K([AEEA-γGlu-Decanoyl(10-(4-HOOC-PhO))])FI[dE][αMeY]LIK([AEEA-γGlu-Decanoyl(10-(4-HOOC-PhO))])GGPSSGAPPPS-NH2
cAMP EC50 [1]: 0.0302 nM | cAMP Emax [1]: 97.6% | cAMP EC50 [2]: > 9950 nM | cAMP EC50 [3]: 0.619 nM | cAMP Emax [3]: 101% | cAMP EC50 (1.0% HSA) [4]: > 9950 nM | cAMP EC50 (1.0% HSA) [5]: 18.7 nM | cAMP Emax (1.0% HSA) [5]: 87.2% | cAMP EC50 (1.0% HSA) [6]: 204 nM

B8: Example 379 (peptide)
peptide: Y[Aib]EGT[αMePhe(2-F)]TSDV[Aib]I[αMeL]LD[Orn]K([AEEA-γGlu-Decanoyl(10-(4-HOOC-PhO))])AQ[Aib]EFI[dE][αMeY]LIK([AEEA-γGlu-Decanoyl(10-(4-HOOC-PhO))])GGPSSGAPPPS-NH2
cAMP EC50 [1]: 0.0167 nM | cAMP Emax [1]: 97.5% | cAMP EC50 [2]: > 9950 nM | cAMP EC50 [3]: 0.171 nM | cAMP Emax [3]: 104% | cAMP EC50 (1.0% HSA) [4]: > 9950 nM | cAMP EC50 (1.0% HSA) [5]: 11.6 nM | cAMP Emax (1.0% HSA) [5]: 90% | cAMP EC50 (1.0% HSA) [6]: 48.5 nM
